In patent US20200040059A1:

Tests used:
[1] = biological target: human PD-L1, full-length, expressed on transfected Expi293 cells (human) (UniProt Q9NZQ7); test: flow cytometry on PD-L1-expressing Expi293 cells
[2] = biological target: human CD28, full-length, expressed on transfected Expi293 cells (human) (UniProt P10747); test: flow cytometry on CD28-expressing Expi293 cells
[3] = biological target: PD-1 on Jurkat/PD-1 cells; test: flow cytometry on Jurkat/PD-1 cells, 50 nM
[4] = biological target: PD-1 on Jurkat/PD-1 cells; test: flow cytometry, 50 nM; ratio to wild type PD-L1 IgV-Fc
[5] = biological target: human CTLA-4, full-length, expressed on transfected Expi293 cells (human) (UniProt P16410); test: flow cytometry on CTLA-4-expressing Expi293 cells
CD96 = biological target: T1, CD96 (UniProt P40200); test: flow cytometry, CD96-expressing cells
T1 sequence (looked up): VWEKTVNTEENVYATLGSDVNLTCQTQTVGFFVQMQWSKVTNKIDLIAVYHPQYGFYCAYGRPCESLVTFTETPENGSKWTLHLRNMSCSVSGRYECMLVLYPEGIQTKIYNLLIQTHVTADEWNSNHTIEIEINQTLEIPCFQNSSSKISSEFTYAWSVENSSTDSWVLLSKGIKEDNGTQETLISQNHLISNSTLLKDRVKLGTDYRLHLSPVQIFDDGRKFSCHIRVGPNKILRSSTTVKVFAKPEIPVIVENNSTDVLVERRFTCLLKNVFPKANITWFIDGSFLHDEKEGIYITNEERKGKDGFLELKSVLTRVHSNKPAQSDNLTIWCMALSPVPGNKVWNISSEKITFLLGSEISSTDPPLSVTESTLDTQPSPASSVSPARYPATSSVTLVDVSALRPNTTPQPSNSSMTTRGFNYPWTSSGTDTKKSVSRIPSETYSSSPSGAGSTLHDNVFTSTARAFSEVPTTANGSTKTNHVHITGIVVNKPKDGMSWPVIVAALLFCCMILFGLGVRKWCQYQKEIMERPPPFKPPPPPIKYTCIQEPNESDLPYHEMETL

[6] = biological target: human CD28, full length, on transfected HEK293 cells (human) (UniProt P10747); test: flow cytometry, Fc fusion at 66.6 nM on HEK293 cells transfected with CD28
[7] = biological target: human CTLA4, full length, on transfected HEK293 cells (human) (UniProt P16410); test: flow cytometry, Fc fusion at 66.6 nM on HEK293 cells transfected with CTLA4
[8] = biological target: human PD-L1, full length, on transfected HEK293 cells (human) (UniProt Q9NZQ7); test: flow cytometry, Fc fusion at 22.2 nM on HEK293 cells transfected with PD-L1
[9] = biological target: PD-1 (Homo sapiens (Human)) (UniProt Q15116); test: flow cytometry, Jurkat/PD-1 cells
CD226 (human) = biological target: T2, CD226 (human) (UniProt Q15762); test: flow cytometry, CD226-expressing cells
T2 sequence: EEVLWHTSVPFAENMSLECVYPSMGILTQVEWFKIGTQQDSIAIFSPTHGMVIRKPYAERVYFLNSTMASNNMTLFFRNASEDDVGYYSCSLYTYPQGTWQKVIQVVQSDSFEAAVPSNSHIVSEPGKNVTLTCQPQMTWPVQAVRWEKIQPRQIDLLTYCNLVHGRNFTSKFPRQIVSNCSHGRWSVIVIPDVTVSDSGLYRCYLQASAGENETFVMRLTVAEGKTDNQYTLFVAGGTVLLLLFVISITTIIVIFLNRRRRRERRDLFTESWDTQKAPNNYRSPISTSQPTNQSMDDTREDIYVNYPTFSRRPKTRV

Chain of PD-1 (Homo sapiens (Human)) (Q15116 21-288 limits assumed, form in doubt): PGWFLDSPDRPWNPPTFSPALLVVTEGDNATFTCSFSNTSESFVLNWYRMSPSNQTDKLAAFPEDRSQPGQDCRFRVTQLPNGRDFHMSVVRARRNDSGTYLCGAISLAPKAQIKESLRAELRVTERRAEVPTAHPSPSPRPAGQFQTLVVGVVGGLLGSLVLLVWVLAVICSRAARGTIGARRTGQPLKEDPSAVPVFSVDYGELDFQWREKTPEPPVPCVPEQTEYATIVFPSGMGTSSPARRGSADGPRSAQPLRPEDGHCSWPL
Chain of CD80 IgV Fc (wild-type CD80 IgV domain fused to Fc) (P33681 35-141 limits assumed): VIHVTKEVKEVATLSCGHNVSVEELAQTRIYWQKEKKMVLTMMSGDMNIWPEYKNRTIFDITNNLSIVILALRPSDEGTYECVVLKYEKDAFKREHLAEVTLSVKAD
Chain of human PD-L1, full length, on transfected HEK293 cells (human) (Q9NZQ7 19-290 limits assumed): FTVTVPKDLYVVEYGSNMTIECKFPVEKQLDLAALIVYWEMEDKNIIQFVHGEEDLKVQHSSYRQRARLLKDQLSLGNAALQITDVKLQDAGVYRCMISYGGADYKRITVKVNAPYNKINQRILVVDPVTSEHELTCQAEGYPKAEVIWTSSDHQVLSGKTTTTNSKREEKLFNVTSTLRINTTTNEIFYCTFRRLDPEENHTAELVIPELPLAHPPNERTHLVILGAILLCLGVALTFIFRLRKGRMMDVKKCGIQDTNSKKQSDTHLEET
Chain of human PD-L1, full-length, expressed on transfected Expi293 cells (human) (Q9NZQ7 19-290 limits assumed): as above
Chain of human CTLA-4, full-length, expressed on transfected Expi293 cells (human) (P16410 36-223 limits assumed): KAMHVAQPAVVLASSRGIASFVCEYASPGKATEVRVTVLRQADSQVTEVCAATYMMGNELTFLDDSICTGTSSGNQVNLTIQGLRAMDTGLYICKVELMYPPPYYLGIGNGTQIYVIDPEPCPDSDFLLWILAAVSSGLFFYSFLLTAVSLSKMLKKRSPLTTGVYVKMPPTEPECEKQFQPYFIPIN
Chain of human CTLA4, full length, on transfected HEK293 cells (human) (P16410 36-223 limits assumed): as above

Substance: CD80 variant A91G/S103P ECD-Fc fusion (from UniProt P33681 35-242)
- MFI [1]: 9 MFI
- MFI [2]: 39 MFI

Substance: PD-L1 IgV I20L, E27G, N45T, V50A Fc fusion
- MFI at 50 nM [3]: 29800
- Fold increase over wildtype PD-L1 IgV-Fc [4]: 5.7 fold

Substance: PD-L1 IgV I20L, A33D, D43G, N45D, V58A, N78I Fc fusion
- MFI at 50 nM [3]: 80200
- Fold increase over wildtype PD-L1 IgV-Fc [4]: 15.3 fold

Substance: CD80 variant V4M/L70Q/A91G/T120S/T130A ECD-Fc fusion
- MFI [1]: 6 MFI
- MFI parental ratio (ratio to WT CD80 ECD-Fc) [1]: 0.09
- MFI [2]: 89 MFI
- MFI parental ratio (ratio to WT CD80 ECD-Fc) [2]: 0.94
- MFI [5]: 263 MFI
- MFI parental ratio (ratio to WT CD80 ECD-Fc) [5]: 1.26

Substance: CD155 variant IgV-Fc P18S, S65W, S67A, M90V, V95A, L104Q, G111R (from UniProt P15151 24-139) (Fc fusion)
- MFI at 100 nM (CD96): 2570 MFI

Substance: CD80 variant IgV-Fc M47V/I69F/A71D/V83I (from UniProt P33681 35-141) (Fc fusion)
- MFI at 66.6 nM [6]: 15900 MFI
- MFI at 66.6 nM [7]: 76900 MFI
- MFI at 22.2 nM [8]: 3400 MFI

Substance: variant PD-L2 IgV-Fc I13V, H15Q, E44V, T47A, Q82R, V89D (Fc fusion)
- MFI at 50 nM [9]: 61000

Substance: CD80 variant T28S/L70Q/A91G/E95K/T120S/T130A ECD-Fc fusion (from UniProt P33681 35-242)
- MFI [1]: 6 MFI
- MFI [2]: 32 MFI
- MFI [5]: 65 MFI

Substance: variant PD-L2 IgV-Fc H15Q, S67L, I86T (Fc fusion)
- MFI at 50 nM [9]: 16000

Substance: CD155 variant IgV-Fc V9L, P18T, Q62R, L79P, F91S, L104M, G111R (from UniProt P15151 24-139) (Fc fusion)
- MFI at 11.1 nM (CD226 (human)): 835 MFI
- MFI at 11.1 nM (CD96): 1500 MFI

Substance: CD80 variant IgV-Fc A26P/E35D/M43I/L85Q/E88D (from UniProt P33681 35-141) (Fc fusion)
- MFI at 66.6 nM [6]: 5410 MFI
- MFI at 66.6 nM [7]: 83100 MFI
- MFI at 22.2 nM [8]: 9510 MFI

Substance: CD80 variant IgV-Fc Q27H/E35G/A71D/L72P/T79I (from UniProt P33681 35-141) (Fc fusion)
- MFI at 66.6 nM [7]: 85100 MFI
- MFI at 22.2 nM [8]: 1450 MFI

Substance: CD80 variant K89E/T130A ECD-Fc fusion (from UniProt P33681 35-242)
- MFI [5]: 148 MFI

Substance: CD80 variant IgV-Fc T41S/T57I/L70R (from UniProt P33681 35-141) (Fc fusion)
- MFI at 66.6 nM [6]: 4900 MFI
- MFI at 66.6 nM [7]: 59800 MFI
- MFI at 22.2 nM [8]: 19500 MFI

Substance: variant PD-L2 IgV-Fc H15Q, C23S, I86T (Fc fusion)
- MFI at 50 nM [9]: 830

Substance: CD80 variant K89R/D90K/A91G/F92Y/K93R/N122S/N178S ECD-Fc fusion (from UniProt P33681 35-242)
- MFI [2]: 41700 MFI
- MFI [5]: 49400 MFI

Substance: CD80 variant IgV-Fc V20I/A71D (from UniProt P33681 35-141) (Fc fusion)
- MFI at 66.6 nM [7]: 60300 MFI
- MFI at 22.2 nM [8]: 3550 MFI

Substance: CD80 variant IgV-Fc A26E/E35D/M47L/L85Q (from UniProt P33681 35-141) (Fc fusion)
- MFI at 66.6 nM [6]: 2270 MFI
- MFI at 66.6 nM [7]: 40300 MFI
- MFI at 22.2 nM [8]: 55500 MFI

Substance: variant PD-L2 IgV-Fc E44D, V89D, W91R (Fc fusion)
- MFI at 50 nM [9]: 614

Substance: CD80 variant L70Q/A91G/T110A/T120S/T130A ECD-Fc fusion (from UniProt P33681 35-242)
- MFI [5]: 14 MFI

Substance: CD80 variant IgV-Fc E23G/A26S/E35D/T62N/A71D/L72V/L85M (from UniProt P33681 35-141) (Fc fusion)
- MFI at 66.6 nM [6]: 5480 MFI
- MFI at 66.6 nM [7]: 59000 MFI

Substance: CD155 variant IgV-Fc P18H, S42G, T45I, S52T, G53R, S54H, V57L, H59E, T61S, S65D, E68G, L104N (Fc fusion)
- MFI at 100 nM (CD96): 3700 MFI

Substance: Full length PD-L1 Fc (from UniProt Q9NZQ7 19-239) (Fc fusion)
- MFI at 50 nM [3]: 18500
- Fold increase over wildtype PD-L1 IgV-Fc [4]: 3.5 fold

Substance: CD80 variant E52G/L70Q/A91G/T120S/T130A ECD-Fc fusion (from UniProt P33681 35-242)
- MFI [1]: 6 MFI
- MFI [5]: 245 MFI

Substance: CD155 variant IgV-Fc V9I, Q12K, P18F, S65A, S67V, L79P, L104T, G111R, S112I (from UniProt P15151 21-139) (Fc fusion)
- MFI at 11.1 nM (CD226 (human)): 803 MFI

Substance: CD80 IgV Fc (wild-type CD80 IgV domain fused to Fc) (from UniProt P33681 35-141) (Fc fusion)
- MFI at 66.6 nM [6]: 1620 MFI
- MFI at 66.6 nM [7]: 20700 MFI
- MFI at 22.2 nM [8]: 1770 MFI

Substance: CD80 variant IgV-Fc V22L/E35D/M43L/A71G/D76H (from UniProt P33681 35-141) (Fc fusion)
- MFI at 66.6 nM [6]: 1500 MFI
- MFI at 66.6 nM [7]: 2970 MFI
- MFI at 22.2 nM [8]: 1850 MFI

Substance: PD-L1 IgV A33D, S75P Fc fusion (SEQ ID NO 1310)
- MFI at 50 nM [3]: 1790
- Fold increase over wildtype PD-L1 IgV-Fc [4]: 0.3 fold

Substance: CD80 variant E24G/R29D/Y31L/Q33H/K36G/M38I/T41A/M43R/M47T/F59L/E81V/L85R/K89N/A91T/F92P/K93V/R94L/H96R ECD-Fc fusion
- MFI [1]: 1120 MFI
- MFI parental ratio (ratio to WT CD80 ECD-Fc) [1]: 0.06
- MFI [2]: 1070 MFI
- MFI parental ratio (ratio to WT CD80 ECD-Fc) [2]: 0.08
- MFI [5]: 1020 MFI
- MFI parental ratio (ratio to WT CD80 ECD-Fc) [5]: 0.02

Substance: PD-L1 IgV I20L, E27G, D43G, N45D, V58A, N78I Fc fusion
- MFI at 50 nM [3]: 69500
- Fold increase over wildtype PD-L1 IgV-Fc [4]: 13.3 fold

Substance: CD80 variant K37E/F59S/L70Q/A91G/T120S/T130A ECD-Fc fusion (from UniProt P33681 35-242)
- MFI [1]: 6 MFI
- MFI [2]: 20 MFI
- MFI [5]: 74 MFI

Substance: CD80 variant IgV-Fc Q27L/E35D/M47I/T57I/L70Q/E88D (from UniProt P33681 35-141) (Fc fusion)
- MFI at 66.6 nM [7]: 59800 MFI
- MFI at 22.2 nM [8]: 1050 MFI

Substance: CD80 variant IgV-Fc E35D/M43L/L70M (from UniProt P33681 35-141) (Fc fusion)
- MFI at 66.6 nM [7]: 102000 MFI
- MFI at 22.2 nM [8]: 40600 MFI

Substance: CD155 variant IgV-Fc P18S, A47G, L79P, F91S, L104M, T107A, R113W (from UniProt P15151 24-139) (Fc fusion)
- MFI at 11.1 nM (CD226 (human)): 1190 MFI

Substance: CD80 variant K36E/I67T/L70Q/A91G/T120S/T130A/N152T ECD-Fc fusion (from UniProt P33681 35-242)
- MFI [1]: 5 MFI
- MFI [2]: 8 MFI

Substance: CD80 variant IgV-Fc E35D/D46V/L85Q (from UniProt P33681 35-141) (Fc fusion)
- MFI at 66.6 nM [6]: 7510 MFI
- MFI at 66.6 nM [7]: 86000 MFI
- MFI at 22.2 nM [8]: 38100 MFI

Substance: CD80 variant N63S/L70Q/A91G/T120S/T130A ECD-Fc fusion (from UniProt P33681 35-242)
- MFI [1]: 6 MFI
- MFI [2]: 124 MFI
- MFI [5]: 165 MFI

Substance: CD155 variant IgV-Fc P18F, T26M, L44V, Q62K, L79P, F91S, L104M, G111D (from UniProt P15151 24-139) (Fc fusion)
- MFI at 100 nM (CD96): 1630 MFI

Substance: PD-L1 IgV I20L, D43G, N45D, N78I Fc fusion
- MFI at 50 nM [3]: 67000
- Fold increase over wildtype PD-L1 IgV-Fc [4]: 12.8 fold

Substance: CD80 variant IgV-Fc L70Q/A71D (from UniProt P33681 35-141) (Fc fusion)
- MFI at 66.6 nM [6]: 18600 MFI
- MFI at 66.6 nM [7]: 45000 MFI
- MFI at 22.2 nM [8]: 1690 MFI

Substance: CD155 variant IgV-Fc P18S, L79P, L104M, T107M (from UniProt P15151 24-139) (Fc fusion)
- MFI at 100 nM (CD226 (human)): 18300 MFI
- MFI at 100 nM (CD96): 22800 MFI
